Laboratory results published in paper doi:10.1101/2021.07.23.453469 (bioRxiv, 2021).

Target: T1, outer-capsid protein σ3 on T3SA- virions (reovirus strain T1L, UniProt P07939 1-365)
T1 sequence (looked up): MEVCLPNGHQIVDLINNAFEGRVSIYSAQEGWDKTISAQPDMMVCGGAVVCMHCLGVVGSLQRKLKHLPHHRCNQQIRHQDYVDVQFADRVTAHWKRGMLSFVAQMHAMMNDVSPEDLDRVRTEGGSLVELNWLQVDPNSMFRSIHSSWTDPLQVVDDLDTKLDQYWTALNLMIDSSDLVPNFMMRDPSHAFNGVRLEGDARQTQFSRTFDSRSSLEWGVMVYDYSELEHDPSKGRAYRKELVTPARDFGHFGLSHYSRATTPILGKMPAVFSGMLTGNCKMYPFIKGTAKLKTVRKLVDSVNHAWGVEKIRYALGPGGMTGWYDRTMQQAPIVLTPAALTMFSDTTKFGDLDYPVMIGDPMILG
Test: cryo-EM structure

B1: NgR1-His (domain or fragment, human, UniProt Q9BZR6 27-310, looked up)
chain: CPGACVCYNEPKVTTSCPQQGLQAVPVGIPAASQRIFLHGNRISHVPAASFRACRNLTILWLHSNVLARIDAAAFTGLALLEQLDLSDNAQLRSVDPATFHGLGRLHTLHLDRCGLQELGPGLFRGLAALQYLYLQDNALQALPDDTFRDLGNLTHLFLHGNRISSVPERAFRGLHSLDRLLLHQNRVAHVHPHAFRDLGRLMTLYLFANNLSALPTEALAPLRALQYLRLNDNPWVCDCRARPLWAWLQKFRGSSSEVPCSLPQRLAGRDLKRLAANDLQGCA
**Q.** Does B1 bind?
**A.** Result: binds
